From article PMC5718816

Target: IgG-CD4 fusion protein (human) (UniProt P01730)
Assay: BLI

Row | Substance | Kd [nM]
1 | recombinant gp120 of HIV-1 93MW965.26 (subtype C) (natural protein) | 112
2 | recombinant consensus gp120 of HIV-1 CRF01_AE | 18.4
3 | recombinant gp120 of HIV-1 JR-FL (subtype B) (natural protein) | 6.4
4 | recombinant gp120 of HIV-1 92UG037.8 (subtype A) (natural protein) | 2.56
